This passage reports propagation of the corresponding virus in 293 cells (multiplication factor) (multiplication factor) and multiplication factor of the virus in 293 cells (7 days post-infection) (multiplication factor) results from US20030175243A1.

The assay concerns the target natural cellular receptor for adenoviruses, on human 293 cells. Description: cell-based or functional assay.
With “Ad5 fiber with the mutation L457K (from UniProt P11818 1-581)”, the propagation of the corresponding virus in 293 cells (multiplication factor) (multiplication factor) was less than 1.
The substance “Ad5 fiber ΔCD+D (deletion of the CD loop and of the D sheet) (from UniProt P11818 1-581)” displayed a propagation of the corresponding virus in 293 cells (multiplication factor) (multiplication factor) of less than 1.
The substance “GRP fiber (Ad5 fiber with a 12-residue spacer arm and the GRP peptide at its C-terminal end), carried by AdTG4628 (from UniProt P11818 1-581)” displayed a multiplication factor of the virus in 293 cells (7 days post-infection) (multiplication factor) of 1000.
As for “Ad5 fiber with the mutation A455F (from UniProt P11818 1-581)”, the propagation of the corresponding virus in 293 cells (multiplication factor) (multiplication factor) was less than 1.
The substance “Ad5 fiber ΔD (deletion of the D sheet of the Ad5 fiber) (from UniProt P11818 1-581)” showed a propagation of the corresponding virus in 293 cells (multiplication factor) (multiplication factor) of less than 1.
Still for that read-out and setting: with “Ad5 fiber with the mutation I459A (from UniProt P11818 1-581)” the figure was less than 1.
The same measure, in the same setting: the same measure for “Ad5 fiber with the mutation G443D (from UniProt P11818 1-581)”: less than 1; for “Ad5 fiber CD5 to CD3 (replacement of the CD loop of an Ad5 with its equivalent from an Ad3)”: less than 1.
